Source: US8318488
Blank lines part the entries; values can stand above or below the substance they belong to.

Legend:
Experiment in all cases: cell-based or functional assay
[1] = target: endothelin receptor A (ETA) (UniProt Q61614)
[2] = target: endothelin receptor B (ETB) (UniProt P48302)
[3] = target: calcium/calmodulin-dependent protein phosphatase calcineurin

Sequence of endothelin receptor B (ETB) (P48302 27-442 limits assumed): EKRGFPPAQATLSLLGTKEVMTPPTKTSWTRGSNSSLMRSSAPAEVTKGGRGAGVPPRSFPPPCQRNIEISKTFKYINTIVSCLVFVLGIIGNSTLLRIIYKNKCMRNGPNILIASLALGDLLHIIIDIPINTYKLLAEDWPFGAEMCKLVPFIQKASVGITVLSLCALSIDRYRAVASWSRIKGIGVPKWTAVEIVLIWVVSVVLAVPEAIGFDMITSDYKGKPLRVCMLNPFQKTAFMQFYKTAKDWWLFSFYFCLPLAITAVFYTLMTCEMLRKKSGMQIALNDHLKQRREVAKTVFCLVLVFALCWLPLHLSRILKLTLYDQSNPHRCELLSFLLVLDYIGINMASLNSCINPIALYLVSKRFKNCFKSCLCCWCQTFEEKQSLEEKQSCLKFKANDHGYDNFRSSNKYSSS
Sequence of endothelin receptor A (ETA) (Q61614 21-427 limits assumed): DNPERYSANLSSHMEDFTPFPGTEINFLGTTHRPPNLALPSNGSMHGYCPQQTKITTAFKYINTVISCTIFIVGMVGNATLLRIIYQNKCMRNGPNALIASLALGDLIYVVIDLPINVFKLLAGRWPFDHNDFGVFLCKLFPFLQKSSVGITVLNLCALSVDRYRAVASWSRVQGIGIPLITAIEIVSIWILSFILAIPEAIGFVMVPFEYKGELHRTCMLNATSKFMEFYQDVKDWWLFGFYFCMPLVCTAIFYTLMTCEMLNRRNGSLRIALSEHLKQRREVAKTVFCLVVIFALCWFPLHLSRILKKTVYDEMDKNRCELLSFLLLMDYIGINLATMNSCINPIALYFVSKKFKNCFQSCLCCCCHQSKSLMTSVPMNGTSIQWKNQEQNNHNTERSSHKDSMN

ANF expression (RT-PCR) after ET-1 stimulation, relative to ET-1 without compound (100%); BQ123 1 µM [1]: 50%
BNP expression (RT-PCR) after ET-1 stimulation, relative to ET-1 without compound (100%); BQ123 1 µM [1]: 60%
Substance: BQ-123 (peptide)

ANF expression (RT-PCR) after ET-1 stimulation, relative to ET-1 without compound (100%); BQ788 1 µM [2]: 70%
BNP expression (RT-PCR) after ET-1 stimulation, relative to ET-1 without compound (100%); BQ788 1 µM [2]: 70%
Substance: BQ-788 (peptide)

ANF expression (RT-PCR) after ET-1 stimulation, relative to ET-1 without compound (100%); cyclosporin A 1 µg/ml [3]: 70%
ANF expression (RT-PCR) after PE stimulation, relative to PE without compound (100%); cyclosporin A 1 µg/ml [3]: 70%
BNP expression (RT-PCR) after ET-1 stimulation, relative to ET-1 without compound (100%); cyclosporin A 1 µg/ml [3]: 50%
BNP expression (RT-PCR) after PE stimulation, relative to PE without compound (100%); cyclosporin A 1 µg/ml [3]: 70%
Substance: Cyclosporin A (peptide)
